# Measurements from article PMC3461841 (Journal of molecular biology, 2012).
# T1: hDcr-C (RNase IIIa, IIIb, dsRBD) (Homo sapiens, UniProt Q9UPY3 1235-1922)
# T1 sequence: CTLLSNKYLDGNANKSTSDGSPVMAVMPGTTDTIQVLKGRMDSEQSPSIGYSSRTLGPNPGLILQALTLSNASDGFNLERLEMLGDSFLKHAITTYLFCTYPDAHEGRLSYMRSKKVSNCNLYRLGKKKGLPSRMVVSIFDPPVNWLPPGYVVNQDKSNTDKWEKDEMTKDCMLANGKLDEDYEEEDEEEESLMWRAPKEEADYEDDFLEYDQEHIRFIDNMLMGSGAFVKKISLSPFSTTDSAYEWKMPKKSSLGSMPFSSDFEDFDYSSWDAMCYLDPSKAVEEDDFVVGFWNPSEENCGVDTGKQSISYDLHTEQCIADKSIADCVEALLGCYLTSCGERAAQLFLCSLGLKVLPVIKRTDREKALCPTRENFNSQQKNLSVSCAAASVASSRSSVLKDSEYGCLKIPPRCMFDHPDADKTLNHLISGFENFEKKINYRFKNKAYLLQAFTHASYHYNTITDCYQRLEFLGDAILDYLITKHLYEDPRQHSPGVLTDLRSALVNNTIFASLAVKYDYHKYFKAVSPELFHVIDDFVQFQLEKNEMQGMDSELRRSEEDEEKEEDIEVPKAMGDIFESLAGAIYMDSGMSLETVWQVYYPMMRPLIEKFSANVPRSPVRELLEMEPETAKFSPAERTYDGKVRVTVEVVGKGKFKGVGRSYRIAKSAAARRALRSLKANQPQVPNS
# T2: MBP-ATPase/hel (Homo sapiens, UniProt Q9UPY3 1-604)
# T2 sequence: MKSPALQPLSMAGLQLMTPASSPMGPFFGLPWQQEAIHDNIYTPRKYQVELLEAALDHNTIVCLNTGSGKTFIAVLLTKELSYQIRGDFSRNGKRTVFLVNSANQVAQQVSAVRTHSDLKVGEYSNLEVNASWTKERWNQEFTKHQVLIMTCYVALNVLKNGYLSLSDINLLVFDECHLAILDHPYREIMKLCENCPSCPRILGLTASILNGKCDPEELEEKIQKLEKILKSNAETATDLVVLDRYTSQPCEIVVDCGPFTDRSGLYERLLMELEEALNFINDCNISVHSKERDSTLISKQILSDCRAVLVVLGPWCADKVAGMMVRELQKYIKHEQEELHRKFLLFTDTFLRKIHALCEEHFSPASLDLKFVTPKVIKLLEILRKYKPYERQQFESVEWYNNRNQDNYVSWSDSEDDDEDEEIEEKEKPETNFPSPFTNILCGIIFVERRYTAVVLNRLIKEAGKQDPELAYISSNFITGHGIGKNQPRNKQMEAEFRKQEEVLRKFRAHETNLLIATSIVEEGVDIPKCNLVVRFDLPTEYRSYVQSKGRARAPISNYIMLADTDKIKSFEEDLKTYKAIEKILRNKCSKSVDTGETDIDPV
# T3: DP (DUF283-PAZ) (Homo sapiens, UniProt Q9UPY3 605-1068)
# T3 sequence: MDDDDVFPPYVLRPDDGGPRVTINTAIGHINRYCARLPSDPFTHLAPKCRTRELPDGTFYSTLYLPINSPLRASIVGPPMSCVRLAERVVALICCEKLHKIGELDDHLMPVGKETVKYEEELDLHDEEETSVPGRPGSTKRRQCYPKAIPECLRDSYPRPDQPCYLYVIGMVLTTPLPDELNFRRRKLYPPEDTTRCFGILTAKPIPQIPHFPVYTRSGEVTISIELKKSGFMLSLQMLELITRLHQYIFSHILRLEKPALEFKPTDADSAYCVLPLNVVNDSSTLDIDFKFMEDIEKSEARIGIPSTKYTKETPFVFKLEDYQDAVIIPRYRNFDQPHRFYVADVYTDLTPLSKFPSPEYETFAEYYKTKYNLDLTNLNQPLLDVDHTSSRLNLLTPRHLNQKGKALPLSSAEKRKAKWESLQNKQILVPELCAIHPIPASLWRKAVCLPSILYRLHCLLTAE
# T4: ATPase/helicase domain of human Dicer (1-604) fused with maltose-binding protein (human, UniProt Q9UPY3 1-604)
# T4 sequence (looked up): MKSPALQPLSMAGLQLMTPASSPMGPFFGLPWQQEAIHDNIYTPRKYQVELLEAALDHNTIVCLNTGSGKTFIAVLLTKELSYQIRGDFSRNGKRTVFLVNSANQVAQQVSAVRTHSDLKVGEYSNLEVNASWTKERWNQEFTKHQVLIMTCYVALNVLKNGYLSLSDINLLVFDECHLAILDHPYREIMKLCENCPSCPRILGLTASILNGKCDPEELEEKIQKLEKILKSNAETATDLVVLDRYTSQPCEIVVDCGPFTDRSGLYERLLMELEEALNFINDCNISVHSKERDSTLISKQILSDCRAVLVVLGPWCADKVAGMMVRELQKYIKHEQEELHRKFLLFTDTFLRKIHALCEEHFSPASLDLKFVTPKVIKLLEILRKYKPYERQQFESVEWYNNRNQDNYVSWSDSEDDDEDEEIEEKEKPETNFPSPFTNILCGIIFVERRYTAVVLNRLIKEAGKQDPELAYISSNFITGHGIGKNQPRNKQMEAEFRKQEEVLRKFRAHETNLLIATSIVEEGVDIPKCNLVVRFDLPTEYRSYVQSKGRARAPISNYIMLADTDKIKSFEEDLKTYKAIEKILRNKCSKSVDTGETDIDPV
# T5: MBP-ATPase/hel domain of human Dicer with a C-terminal hemagglutinin (HA) epitope tag (human, UniProt Q9UPY3 1-604)
# T5 sequence (looked up): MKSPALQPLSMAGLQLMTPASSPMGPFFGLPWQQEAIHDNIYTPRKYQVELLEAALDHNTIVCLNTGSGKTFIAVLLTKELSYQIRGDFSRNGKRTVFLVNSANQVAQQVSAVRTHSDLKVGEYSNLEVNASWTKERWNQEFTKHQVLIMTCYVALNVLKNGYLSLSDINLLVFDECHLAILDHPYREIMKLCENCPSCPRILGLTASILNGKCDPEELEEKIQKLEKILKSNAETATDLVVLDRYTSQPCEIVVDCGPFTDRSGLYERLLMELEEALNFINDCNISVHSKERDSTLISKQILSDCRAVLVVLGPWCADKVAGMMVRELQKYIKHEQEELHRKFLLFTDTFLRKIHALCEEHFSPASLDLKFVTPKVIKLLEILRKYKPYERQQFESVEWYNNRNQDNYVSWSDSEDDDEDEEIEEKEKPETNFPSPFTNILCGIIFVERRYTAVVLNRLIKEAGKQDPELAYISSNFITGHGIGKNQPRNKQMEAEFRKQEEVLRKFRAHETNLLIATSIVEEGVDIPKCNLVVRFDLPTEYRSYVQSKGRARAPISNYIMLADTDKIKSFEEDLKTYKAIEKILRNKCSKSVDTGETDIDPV
# T6: human Dicer C-terminal fragment (hDcr-C: 1235-1922), bacterially expressed (human, UniProt Q9UPY3 1235-1922)
# T6 sequence (looked up): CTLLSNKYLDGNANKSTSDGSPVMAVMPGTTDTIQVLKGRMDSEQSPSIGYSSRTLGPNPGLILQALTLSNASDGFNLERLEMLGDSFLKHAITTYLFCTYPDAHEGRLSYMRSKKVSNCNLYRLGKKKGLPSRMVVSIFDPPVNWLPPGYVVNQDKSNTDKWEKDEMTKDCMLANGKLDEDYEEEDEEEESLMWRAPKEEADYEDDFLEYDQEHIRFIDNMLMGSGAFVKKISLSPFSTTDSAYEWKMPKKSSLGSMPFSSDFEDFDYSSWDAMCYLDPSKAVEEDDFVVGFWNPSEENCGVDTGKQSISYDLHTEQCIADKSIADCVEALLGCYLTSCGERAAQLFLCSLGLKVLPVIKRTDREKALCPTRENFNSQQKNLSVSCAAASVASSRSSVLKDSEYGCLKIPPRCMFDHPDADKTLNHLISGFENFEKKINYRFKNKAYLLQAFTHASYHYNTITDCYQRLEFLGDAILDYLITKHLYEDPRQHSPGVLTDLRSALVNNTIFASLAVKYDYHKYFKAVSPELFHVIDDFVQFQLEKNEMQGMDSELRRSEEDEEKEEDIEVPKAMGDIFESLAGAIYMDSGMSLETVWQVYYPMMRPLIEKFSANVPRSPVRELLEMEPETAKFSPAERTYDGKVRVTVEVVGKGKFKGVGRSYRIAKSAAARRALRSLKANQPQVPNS
# Experiments:
# [1] = biological target: T1, hDcr-C (RNase IIIa, IIIb, dsRBD); assay: filter binding
# [2] = biological target: FL-hDicer (full-length human Dicer) (Homo sapiens, UniProt Q9UPY3 1-1922); assay: filter binding
# [3] = biological target: T2, MBP-ATPase/hel; assay: filter binding
# [4] = biological target: T3, DP (DUF283-PAZ); assay: filter binding
# [5] = biological target: T4, ATPase/helicase domain of human Dicer …; assay: SEC
# [6] = biological target: T5, MBP-ATPase/hel domain of human Dicer …; assay: co-IP
# [7] = biological target: T6, human Dicer C-terminal fragment …; assay: SEC
# Sequence of FL-hDicer (full-length human Dicer) (Q9UPY3 whole entry): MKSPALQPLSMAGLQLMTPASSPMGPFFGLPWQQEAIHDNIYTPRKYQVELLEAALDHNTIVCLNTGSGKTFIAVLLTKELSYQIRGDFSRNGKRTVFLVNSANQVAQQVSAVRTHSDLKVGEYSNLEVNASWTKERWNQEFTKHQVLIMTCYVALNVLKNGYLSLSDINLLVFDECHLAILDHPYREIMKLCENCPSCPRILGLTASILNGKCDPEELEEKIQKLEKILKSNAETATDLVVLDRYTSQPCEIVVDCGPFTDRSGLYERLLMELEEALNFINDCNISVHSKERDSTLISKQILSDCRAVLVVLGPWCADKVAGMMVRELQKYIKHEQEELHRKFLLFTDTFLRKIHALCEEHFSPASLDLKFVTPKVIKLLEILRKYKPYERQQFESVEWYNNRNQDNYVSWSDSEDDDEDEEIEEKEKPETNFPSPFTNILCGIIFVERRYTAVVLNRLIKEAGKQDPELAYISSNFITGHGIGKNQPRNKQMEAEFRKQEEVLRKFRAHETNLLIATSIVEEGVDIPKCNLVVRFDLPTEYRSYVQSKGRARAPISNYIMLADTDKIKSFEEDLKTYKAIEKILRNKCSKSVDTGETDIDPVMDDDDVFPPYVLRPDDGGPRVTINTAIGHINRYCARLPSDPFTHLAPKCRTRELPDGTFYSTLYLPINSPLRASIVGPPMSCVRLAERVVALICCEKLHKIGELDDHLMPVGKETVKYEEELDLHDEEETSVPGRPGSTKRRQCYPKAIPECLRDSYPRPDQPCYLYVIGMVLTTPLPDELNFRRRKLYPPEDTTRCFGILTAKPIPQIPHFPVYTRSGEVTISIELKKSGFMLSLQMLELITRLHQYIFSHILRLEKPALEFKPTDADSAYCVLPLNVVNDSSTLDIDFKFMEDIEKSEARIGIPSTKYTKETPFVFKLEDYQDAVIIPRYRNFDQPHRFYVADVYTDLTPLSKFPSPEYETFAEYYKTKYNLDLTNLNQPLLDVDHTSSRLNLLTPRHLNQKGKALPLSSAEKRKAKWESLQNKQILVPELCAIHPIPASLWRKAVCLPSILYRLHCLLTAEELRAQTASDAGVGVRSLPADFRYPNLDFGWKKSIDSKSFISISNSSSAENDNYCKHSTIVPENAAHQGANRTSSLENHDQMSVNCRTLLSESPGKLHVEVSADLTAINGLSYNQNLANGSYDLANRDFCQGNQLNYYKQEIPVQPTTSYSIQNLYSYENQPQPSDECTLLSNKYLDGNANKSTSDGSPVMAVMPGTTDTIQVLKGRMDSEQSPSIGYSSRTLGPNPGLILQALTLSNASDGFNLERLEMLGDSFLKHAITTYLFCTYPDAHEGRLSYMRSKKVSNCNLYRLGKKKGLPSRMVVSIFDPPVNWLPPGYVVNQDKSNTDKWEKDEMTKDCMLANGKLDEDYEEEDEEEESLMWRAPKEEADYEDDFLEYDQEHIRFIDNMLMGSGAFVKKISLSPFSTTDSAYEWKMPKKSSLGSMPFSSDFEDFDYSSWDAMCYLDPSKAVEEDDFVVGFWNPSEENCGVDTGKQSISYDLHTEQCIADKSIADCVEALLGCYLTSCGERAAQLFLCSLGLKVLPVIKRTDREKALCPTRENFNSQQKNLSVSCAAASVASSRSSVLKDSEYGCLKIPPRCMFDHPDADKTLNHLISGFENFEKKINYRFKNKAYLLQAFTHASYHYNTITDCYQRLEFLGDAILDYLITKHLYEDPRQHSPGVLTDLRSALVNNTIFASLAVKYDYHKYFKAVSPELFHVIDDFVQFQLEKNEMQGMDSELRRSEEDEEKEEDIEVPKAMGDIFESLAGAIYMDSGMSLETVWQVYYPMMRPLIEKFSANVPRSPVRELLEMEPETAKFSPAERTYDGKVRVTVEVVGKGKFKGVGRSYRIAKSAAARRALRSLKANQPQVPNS
Binder,Kd [2] [nM],Kd [3] [nM],Kd [4] [nM],further results
37ab (dsRNA) RNA 1: UGAGGUAGUAGGUUGUAUAGUUUGAAAGUUCACGAUU RNA 2: UCGUGAACUUUCAAACUAUACAACCUACUACCUCAUU,53 ± 8,476 ± 30,200 ± 34,Kd [1]: 300 ± 40 nM
"human TAR-RNA binding protein (hTRBP), the larger isoform TRBP2 (natural protein, UniProt Q15633-1 1-366, looked up) MSEEEQGSGTTTGCGLPSIEQMLAANPGKTPISLLQEYGTRIGKTPVYDLLKAEGQAHQPNFTFRVTVGDTSCTGQGPSKKAAKHKAAEVALKHLKGGSMLEPALEDSSSFSPLDSSLPEDIPVFTAAAAATPVPSVVLTRSPPMELQPPVSPQQSECNPVGALQELVVQKGWRLPEYTVTQESGPAHRKEFTMTCRVERFIEIGSGTSKKLAKRNAAAKMLLRVHTVPLDARDGNEVEPDDDHFSIGVGSRLDGLRNRGPGCTWDSLRNSVGEKILSLRSCSLGSLGALGPACCRVLSELSEEQAFHVSYLDIEELSLSGLCQCLVELSTQPATVCHGSATTREAARGEAARRALQYLKIMAGSK",–,–,–,binding result [5]: binds; binding result [6]: binds
"human Dicer DUF283-PAZ fragment (DP: 605-1068) (domain or fragment, UniProt Q9UPY3 605-1068, looked up) MDDDDVFPPYVLRPDDGGPRVTINTAIGHINRYCARLPSDPFTHLAPKCRTRELPDGTFYSTLYLPINSPLRASIVGPPMSCVRLAERVVALICCEKLHKIGELDDHLMPVGKETVKYEEELDLHDEEETSVPGRPGSTKRRQCYPKAIPECLRDSYPRPDQPCYLYVIGMVLTTPLPDELNFRRRKLYPPEDTTRCFGILTAKPIPQIPHFPVYTRSGEVTISIELKKSGFMLSLQMLELITRLHQYIFSHILRLEKPALEFKPTDADSAYCVLPLNVVNDSSTLDIDFKFMEDIEKSEARIGIPSTKYTKETPFVFKLEDYQDAVIIPRYRNFDQPHRFYVADVYTDLTPLSKFPSPEYETFAEYYKTKYNLDLTNLNQPLLDVDHTSSRLNLLTPRHLNQKGKALPLSSAEKRKAKWESLQNKQILVPELCAIHPIPASLWRKAVCLPSILYRLHCLLTAE",–,–,–,binding result [7]: binds
21ab (siRNA/product mimic) (dsRNA) RNA 1: UAUACAAUGUGCUAGCUUUCU RNA 2: AAAGCUAGCACAUUGUAUAGU,144 ± 23,–,220 ± 40,–
pre-hlet-7a-1 (structured_RNA) RNA: UGAGGUAGUAGGUUGUAUAGUUUUAGGGUCACACCCACCACUGGGAGAUAACUAUACAAUCUACUGUCUUACC,39 ± 5,96 ± 10,~1000,–
